The values that follow come from article PMC8865373 (Biochemistry, 2021).

Where no end group is shown, it is not given here. [ ]: non-standard residue; d: D form. pS = N[C@@H](COP(=O)(O)O)C(=O)O

For test [1], the target named is T1, TAZ2 domain (residues 1764–1855) of wild-type mouse CBP (mouse, UniProt P45481 1764-1855).
T1 sequence (looked up): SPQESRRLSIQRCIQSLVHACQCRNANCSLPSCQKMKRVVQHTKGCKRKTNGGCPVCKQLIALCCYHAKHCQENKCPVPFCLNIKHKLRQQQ
The test is described as follows: fluorescence polarisation. In general terms: In fluorescence polarisation assays a small probe gives low polarisation when free and higher when bound to something large.

Test [2] addresses T1, TAZ2 domain (residues 1764–1855) of …. Kind of test: NMR titration.
The target is the same in test [3]. Kind of test: NMR titration. The source holds these as a separate data set.
The target is the same in test [4]. Kind of test: fluorescence polarisation. The source holds these as a separate data set.

B1: E7(1–51) C24A/A50C labeled with Alexa fluor 594, unphosphorylated (domain or fragment)
chain: MHGDTPTLHEYMLDLQPETTDLYAYEQLNDSSEEEDEIDGPAGQAEPDRC(Alexa Fluor 594)H
Usually Kd stands for the concentration at which binding is half-saturated. A lower Kd goes with tighter binding. In test [1], B1 displayed a Kd of 79 nM. This lies in the double-digit nanomolar range.

B2: doubly-phosphorylated HPV16 ppE7(1–51) (domain or fragment)
chain: MHGDTPTLHEYMLDLQPETTDLYCYEQLND[pS][pS]EEEDEIDGPAGQAEPDRAH
For B2, the binding result in test [2] is recorded as “binds”.

As for ETTDLYCYEQLNDSSEEEDE [E7 CR2 peptide (residues 18–37)], the Kd in test [3] was 3.4 µM; in test [4], 4.6 ± 0.2 µM.

Consider PETTDLYCYEQLNDSSEEEDEIDGPAGQAEPDRAH (domain or fragment) [HPV16 E7(17–51), unphosphorylated], for which the dissociation constant Kd in test [4] was determined as 1.8 ± 0.1 µM.

B3: ppE7(1–51)(L15V) (domain or fragment)
chain: MHGDTPTLHEYMLDVQPETTDLYCYEQLND[pS][pS]EEEDEIDGPAGQAEPDRAH
B3: the binding result in test [2] is reported as “binds”.

B4: HPV16 E7(1–51), unphosphorylated (domain or fragment)
chain: MHGDTPTLHEYMLDLQPETTDLYCYEQLNDSSEEEDEIDGPAGQAEPDRAH
In test [4], B4 came in with a Kd of 0.1 ± 0.01 µM.

For PETTDLYCYEQLND[pS][pS]EEEDEIDGPAGQAEPDRAH (domain or fragment) [doubly-phosphorylated HPV16 ppE7(17–51)], the binding result in test [2] is “binds”.

Regarding MHGDTPTLHEYMLDLQPE-NH2 [E7 CR1 peptide (residues 1–18)], the values for the Kd in test [3] and in test [4] were 69 µM and 31 ± 2 µM, respectively.
